{"source": "patent US7115711", "about": "(GENERAL HOSPITAL, dated 2006)", "binders": {"B1": {"name": "B42-PPAR clone starting at amino acid 91 (other, mouse, UniProt P23204 91-468, looked up, not shown: large carriers)", "chain": "DESPGSALNIECRICGDKASGYHYGVHACEGCKGFFRRTIRLKLVYDKCDRSCKIQKKNRNKCQYCRFHKCLSVGMSHNAIRFGRMPRSEKAKLKAEILTCEHDLKDSETADLKSLGKRIHEAYLKNFNMNKVKARVILAGKTSNNPPFVIHDMETLCMAEKTLVAKMVANGVEDKEAEVRFFHCCQCMSVETVTELTEFAKAIPGFANLDLNDQVTLLKYGVYEAIFTMLSSLMNKDGMLIAYGNGFITREFLKNLRKPFCDIMEPKFDFAMKFNALELDDSDISLFVAAIICCGDRPGLLNIGYIEKLQEGIVHVLKLHLQSNHPDDTFLFPKLLQKMVDLRQLVTEHAQLVQVIKKTESDAALHPLLQEIYRDMY", "notes": "range 91-C-terminus; Only the start is stated; also called PPAR (four clones)"}, "B2": {"name": "B42-PPAR (plasmid isolated from the screening, as used in Table 1) (other, mouse, UniProt P23204 91-468, looked up, not shown: large carriers)", "chain": "B1 chain", "notes": "'For B42-PPAR, the plasmid isolated from the screening was used'; also called B42 fusion PPAR"}, "B3": {"name": "B42-PPAR clone starting at amino acid 84 (other, mouse, UniProt P23204 84-468, looked up, not shown: large carriers)", "chain": "PVIPASTDESPGSALNIECRICGDKASGYHYGVHACEGCKGFFRRTIRLKLVYDKCDRSCKIQKKNRNKCQYCRFHKCLSVGMSHNAIRFGRMPRSEKAKLKAEILTCEHDLKDSETADLKSLGKRIHEAYLKNFNMNKVKARVILAGKTSNNPPFVIHDMETLCMAEKTLVAKMVANGVEDKEAEVRFFHCCQCMSVETVTELTEFAKAIPGFANLDLNDQVTLLKYGVYEAIFTMLSSLMNKDGMLIAYGNGFITREFLKNLRKPFCDIMEPKFDFAMKFNALELDDSDISLFVAAIICCGDRPGLLNIGYIEKLQEGIVHVLKLHLQSNHPDDTFLFPKLLQKMVDLRQLVTEHAQLVQVIKKTESDAALHPLLQEIYRDMY", "notes": "range 84-C-terminus; Only the start is stated; also called PPAR (three clones)"}, "B4": {"name": "LexA-RXR (other, bacterial;human, UniProt P0A7C2 1-202, looked up)", "chain": "MKALTARQQEVFDLIRDHISQTGMPPTRAEIAQRLGFRSPNAAEEHLKALARKGVIEIVSGASRGIRLLQEEEEGLPLVGRVAAGEPLLAQQHIEGHYQVDPSLFKPNADFLLRVSGMSMKDIGIMDGDLLAVHKTQDVRNGQVVVARIDDEVTVKRLKKQGNKVELLPENSEFKPIVVDLRQQSFTIEGLAVGVIRNGDWLLAMGMKREAVQEERQRGKDRNENEVESTSSANEDMPVERILEAELAVEPKTETYVEANMGLNPSSPNDPVTNICQAADKQLFTLVEWAKRIPHFSELPLDDQVILLRAGWNELLIASFSHRSIAVKDGILLATGLHVHRNSAHSAGVGAIFDRVLTELVSKMRDMQMDKTELGCLRAIVLFNPDSKGLSNPAEVEALREKVYASLEAYCKHKYPEQPGRFAKLLLRLPALRSIGLKCLEHLFFFKLIGDTPIDTFLMEMLEAPHQMT", "notes": "also called Lex fusion RXR"}, "B5": {"name": "B42-RIP13 (other, not shown: large carriers)", "chain": "DALAALVDAAASAPQMDVSKTKESKHEAARLEENLRSRSAAVSEQQQLEQKNLEVEKRSVQCVCTSSALPSGKAQPHASVVYSEAGKDKGPPPKSRYEEELRTRGKTTITAANFIDVTITRQIASDKDARERGSQSSDSSSSLSSHRYETASDAIEVISPASSPAPPQEKPQAYQPDMVKANQAENESTRQYEGPLHHYRSQQESPSPQQQPPLPPSSQSEGMGQVPRTHRLITLADHICQIITQDFARNQVPSQPSTSTFQTSPSALSSTPVRTKTSSRYSPESQSQTVLHPRPGPRVSPENLVDKSRGSRPGKSPERSHIPSEPYEPISPPQGPAVHEKQDSMLLLSQRGVDPAEQRSDSRSPGSISYLPSFFTKLESTSPMVKSKKQEIFRKLNSSGGGDSDMAAAQPGTEIFNLPAVTTSGAVSSRSHSFADPASNLGLEDIIRKALMGSFDDKVEDHGVVMSHPVGIMPGSASTSVVTSSEARRDEGEPSPHAGVCKPKLINKSNSRKSKSPIPGQSYLGTERPSSVSSVHSEGDYHRQTPGWAWEDRPSSTGSTQFPYNPLTIRMLSSTPPTQIACAPSAITQAAPHQQNRIWEREPAPLLSAQYETLSDSDD"}}, "key": {"LexA-RXR [1]": {"molecular_target": "B4", "experiment": "yeast interaction trap screen; clones showing specific interaction with LexA-RXR; four clones starting at amino acid 91", "method": "(§1) From 3×10^6 primary yeast transformants, a number of β-gal expressing colonies were identified in two independent screens carried out in the presence or absence of 9-cis-RA. Since expression of the B42-cDNA fusion proteins was induced by growth on galactose, candidates obtained from each condition were tested for galactose-dependent expression of both β-gal and LEU2, in the presence or absence of 9-cis-RA, using appropriate indicator plates (see below).\n(§2) Candidates showing specific interaction with LexA-RXR were sequenced across the B42 fusion junction using an appropriate vector primer, and additional sequence was determined. The deduced amino acid sequences were compared to those in the GenBank and EMBL databases using the GCG (Devereux et al., Nucleic Acids Res. 12:387–395, 1984) and BLAST programs (Altschul et al., J. Mol. Biol. 215:403–410, 1990). […] All of these clones included intact ligand binding domains, as expected from the fact that the major heterodimerization function lies within that domain. For PPAR (Issemann et al., Nature 347:645–650, 1990), three clones started at amino acid 84, just N-terminal to the DNA binding (C) domain, four others started at 91, within the C domain, and one at 170, just past the C domain. For RAR (Leroy et al., EMBO J. 10:59–69), all six clones started at amino acid 132, within the C domain."}, "LexA-TR": {"molecular_target": "T1, LexA-TR (bacterial; rat, UniProt P0A7C2 1-202; P18113 170-461, limits assumed)", "T1 construct": "also called Lex fusion TR", "T1 sequence (looked up)": "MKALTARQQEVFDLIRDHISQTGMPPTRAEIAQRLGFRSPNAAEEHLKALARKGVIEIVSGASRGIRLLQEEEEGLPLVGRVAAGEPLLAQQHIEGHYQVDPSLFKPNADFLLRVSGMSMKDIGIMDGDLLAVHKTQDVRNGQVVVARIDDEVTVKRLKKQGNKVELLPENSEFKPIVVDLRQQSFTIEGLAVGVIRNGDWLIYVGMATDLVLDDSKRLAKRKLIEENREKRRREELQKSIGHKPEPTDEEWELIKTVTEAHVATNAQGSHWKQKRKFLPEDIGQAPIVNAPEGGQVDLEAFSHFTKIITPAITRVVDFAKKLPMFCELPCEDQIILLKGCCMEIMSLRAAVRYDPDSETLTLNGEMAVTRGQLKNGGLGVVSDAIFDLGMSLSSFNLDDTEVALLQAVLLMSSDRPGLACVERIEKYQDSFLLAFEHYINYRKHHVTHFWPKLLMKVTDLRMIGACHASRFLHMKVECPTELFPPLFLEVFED", "experiment": "yeast interaction trap, X-gal plate, with T3; W = white (no interaction)", "method": "(§3) Interactions of the RIP clones with other superfamily members, including RAR, TR, the glucocorticoid receptor (GR), and MB67, an orphan isolated in this lab (Baes et al., Mol. Cell. Biol. 14:1544–1552, 1994) were also tested using a series of appropriate LexA fusions. In particular, the experiments shown in Table 1 were carried out as follows. Yeast transformants containing a lacZ reporter gene under the control of LexA binding sites and the indicated B42- and Lex-fusion protein expression vectors were transferred onto galactose-Ura⁻His⁻Trp⁻ plates containing X-gal and incubated for two days. Relative levels of β-galactosidase activity were estimated and are depicted as follows: B, blue (strong interaction); LB, light blue (weak interaction); W, white (no interaction); nt, not tested. At least three separate colonies were tested on the same plate for interaction. To test the effects of ligands, 100 µl of a 10^-6M solution of the appropriate ligand was spread onto plates just before inoculation of cells (9-cis-RA for RXR, T3 for TR, and all-trans-RA for RAR). For B42-PPAR, the plasmid isolated from the screening was used. Both full length and truncated RAR fusions to LexA were tested with identical results for all the B42 fusions except B42-110, which was tested only with the full length fusion."}, "LexA-RXR [2]": {"molecular_target": "B4", "experiment": "yeast interaction trap screen; clones showing specific interaction with LexA-RXR; three clones starting at amino acid 84", "method": "as §1, §2"}, "B42-RIP110": {"molecular_target": "T2, B42-RIP110 (mouse, UniProt Q5U5Q9 20-727)", "T2 construct": "Clone from a mouse liver cDNA library fused to B42; also called B42-110; B42 fusion 110", "T2 sequence": "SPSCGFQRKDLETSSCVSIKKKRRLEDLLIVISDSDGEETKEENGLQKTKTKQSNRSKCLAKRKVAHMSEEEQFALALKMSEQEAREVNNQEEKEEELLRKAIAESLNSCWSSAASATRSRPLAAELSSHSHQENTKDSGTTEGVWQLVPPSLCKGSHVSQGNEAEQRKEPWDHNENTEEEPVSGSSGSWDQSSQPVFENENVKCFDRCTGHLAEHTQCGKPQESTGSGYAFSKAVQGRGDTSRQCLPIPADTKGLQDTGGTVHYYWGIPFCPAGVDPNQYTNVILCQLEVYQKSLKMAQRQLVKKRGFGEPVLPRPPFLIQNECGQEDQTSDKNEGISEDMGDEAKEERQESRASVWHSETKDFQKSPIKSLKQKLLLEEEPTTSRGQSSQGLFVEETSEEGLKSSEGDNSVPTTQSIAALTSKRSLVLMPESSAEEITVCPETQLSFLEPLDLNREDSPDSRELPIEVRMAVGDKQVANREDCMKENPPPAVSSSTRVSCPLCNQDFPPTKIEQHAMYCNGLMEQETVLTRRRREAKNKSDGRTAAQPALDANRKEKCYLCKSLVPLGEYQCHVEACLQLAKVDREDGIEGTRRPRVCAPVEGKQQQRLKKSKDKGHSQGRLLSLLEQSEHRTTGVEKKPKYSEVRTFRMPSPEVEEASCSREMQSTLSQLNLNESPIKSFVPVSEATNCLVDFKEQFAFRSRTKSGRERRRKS", "experiment": "yeast interaction trap, X-gal plate, with 9-cis-RA; B = blue (strong interaction)", "method": "as §3"}, "B42-RIP13": {"molecular_target": "B5", "experiment": "yeast interaction trap, X-gal plate, with 9-cis-RA; B = blue (strong interaction)", "method": "as §3"}, "LexA-RXR [3]": {"molecular_target": "B4", "experiment": "cell-based or functional assay"}}}
{"binder": "B1", "values": [{"measurement": "binding result", "setting": "LexA-RXR [1]", "result": "binds"}]}
{"binder": "B2", "values": [{"measurement": "binding result", "setting": "LexA-TR", "result": "no binding"}]}
{"binder": "B3", "values": [{"measurement": "binding result", "setting": "LexA-RXR [2]", "result": "binds"}]}
{"binder": "B4", "values": [{"measurement": "binding result", "setting": "B42-RIP110", "result": "binds"}, {"measurement": "binding result", "setting": "B42-RIP13", "result": "binds"}]}
{"binder": "B5", "values": [{"measurement": "β-gal expression (lacZ reporter under LexA binding sites, yeast liquid culture)", "setting": "LexA-RXR [3]", "result": "~3", "unit": "fold"}]}
